One test has as its target T1, His-Smc3 (human, UniProt Q9UQE7 1-1217).
T1 construct: Full-length human SMC3 cloned by RT-PCR into pFastBac-HT A (His-tag vector); pFastBac-HT A is recalled to add the His tag at the N-terminus; also called His-tagged Smc3; source: Sf9 insect cells (Bac-to-Bac baculovirus), purified with nickel-nitrilotriacetic acid beads
Kind of test: pull-down; GST or GST-NudCL2 protein incubated with each of the purified His-tagged cohesin subunits from Sf9 cells; Western analysis. To be noted: both partners purified.

For the next test, the target named is T2, His-Smc1α (human, UniProt Q14683 1-1233).
T2 construct: Full-length human SMC1A cloned by RT-PCR into pFastBac-HT A (His-tag vector); pFastBac-HT A is recalled to add the His tag at the N-terminus; also called His-tagged Smc1α; SMC1A; source: Sf9 insect cells (Bac-to-Bac baculovirus), purified with nickel-nitrilotriacetic acid beads
T2 sequence (looked up): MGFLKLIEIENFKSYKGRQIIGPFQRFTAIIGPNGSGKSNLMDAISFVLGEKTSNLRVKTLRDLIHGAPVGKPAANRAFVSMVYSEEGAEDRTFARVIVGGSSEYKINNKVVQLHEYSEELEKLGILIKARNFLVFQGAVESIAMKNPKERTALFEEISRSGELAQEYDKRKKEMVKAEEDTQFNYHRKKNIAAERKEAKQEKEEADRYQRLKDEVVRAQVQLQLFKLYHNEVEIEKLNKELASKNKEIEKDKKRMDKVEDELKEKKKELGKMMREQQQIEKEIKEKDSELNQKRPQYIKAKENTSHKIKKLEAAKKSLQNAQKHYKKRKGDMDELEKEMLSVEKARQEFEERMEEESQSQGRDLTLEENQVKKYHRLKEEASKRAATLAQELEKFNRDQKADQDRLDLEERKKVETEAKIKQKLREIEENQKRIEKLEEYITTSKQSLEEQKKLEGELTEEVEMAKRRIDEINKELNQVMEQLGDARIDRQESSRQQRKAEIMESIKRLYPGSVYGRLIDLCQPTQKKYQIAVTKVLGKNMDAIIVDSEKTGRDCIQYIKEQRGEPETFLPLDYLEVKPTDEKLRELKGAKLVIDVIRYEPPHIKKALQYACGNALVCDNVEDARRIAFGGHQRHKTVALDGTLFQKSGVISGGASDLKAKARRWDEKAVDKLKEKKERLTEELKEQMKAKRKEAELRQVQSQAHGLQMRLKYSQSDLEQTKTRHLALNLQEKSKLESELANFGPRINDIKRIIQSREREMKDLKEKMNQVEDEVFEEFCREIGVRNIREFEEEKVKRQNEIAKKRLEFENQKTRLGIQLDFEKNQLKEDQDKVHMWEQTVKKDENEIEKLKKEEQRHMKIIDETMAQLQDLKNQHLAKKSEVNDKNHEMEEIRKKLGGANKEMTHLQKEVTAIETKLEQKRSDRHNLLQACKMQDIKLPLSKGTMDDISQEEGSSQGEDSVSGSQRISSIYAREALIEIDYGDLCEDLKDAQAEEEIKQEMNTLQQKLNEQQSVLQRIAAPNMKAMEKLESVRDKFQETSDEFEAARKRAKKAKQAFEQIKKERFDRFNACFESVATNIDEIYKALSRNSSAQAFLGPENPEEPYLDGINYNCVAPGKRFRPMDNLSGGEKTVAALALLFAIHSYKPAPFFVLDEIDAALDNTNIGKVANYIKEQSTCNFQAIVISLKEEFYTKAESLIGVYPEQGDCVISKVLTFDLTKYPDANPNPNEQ
The description is as above. To be noted: both partners purified.

One molecule from PMC6339671, “NudCL2 is an Hsp90 cochaperone to regulate sister chromatid cohesion by stabilizing cohesin subunits” (Cellular and Molecular Life Sciences: CMLS, 2018) can be followed below.

T1 sequence (Q9UQE7 whole entry): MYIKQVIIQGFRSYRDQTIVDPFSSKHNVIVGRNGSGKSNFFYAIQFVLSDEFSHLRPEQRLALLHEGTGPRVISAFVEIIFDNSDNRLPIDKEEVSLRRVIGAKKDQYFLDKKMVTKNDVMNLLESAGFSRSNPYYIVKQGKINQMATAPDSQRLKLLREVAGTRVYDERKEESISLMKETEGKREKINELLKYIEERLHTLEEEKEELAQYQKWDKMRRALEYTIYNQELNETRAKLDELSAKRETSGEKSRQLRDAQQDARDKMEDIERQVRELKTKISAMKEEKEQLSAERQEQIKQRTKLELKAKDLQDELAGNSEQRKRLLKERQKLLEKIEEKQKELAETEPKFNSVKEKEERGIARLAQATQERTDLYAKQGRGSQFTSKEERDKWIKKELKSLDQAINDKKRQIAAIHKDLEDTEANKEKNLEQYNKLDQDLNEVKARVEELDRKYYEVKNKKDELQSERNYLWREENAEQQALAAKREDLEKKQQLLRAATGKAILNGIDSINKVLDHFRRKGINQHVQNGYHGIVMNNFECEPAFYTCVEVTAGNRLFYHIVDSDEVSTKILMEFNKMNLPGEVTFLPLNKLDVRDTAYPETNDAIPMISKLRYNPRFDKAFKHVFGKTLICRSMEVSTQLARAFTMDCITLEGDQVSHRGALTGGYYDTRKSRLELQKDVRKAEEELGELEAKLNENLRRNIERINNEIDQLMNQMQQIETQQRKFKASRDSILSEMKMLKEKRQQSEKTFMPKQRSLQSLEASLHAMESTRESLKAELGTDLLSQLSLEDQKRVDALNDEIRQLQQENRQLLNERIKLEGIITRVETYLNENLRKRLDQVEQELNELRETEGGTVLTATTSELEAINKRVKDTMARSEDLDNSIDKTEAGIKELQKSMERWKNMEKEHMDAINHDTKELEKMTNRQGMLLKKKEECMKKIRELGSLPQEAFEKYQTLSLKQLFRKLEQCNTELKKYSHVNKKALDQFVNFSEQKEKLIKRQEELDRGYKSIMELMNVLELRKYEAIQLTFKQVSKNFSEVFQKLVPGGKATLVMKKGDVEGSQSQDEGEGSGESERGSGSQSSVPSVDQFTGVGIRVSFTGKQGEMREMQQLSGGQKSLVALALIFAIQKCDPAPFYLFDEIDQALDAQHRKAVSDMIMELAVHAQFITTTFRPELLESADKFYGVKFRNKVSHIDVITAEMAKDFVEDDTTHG

B1: GST-NudCL2 (natural protein, human, UniProt Q8WVJ2 1-157, looked up)
chain: MSAPFEERSGVVPCGTPWGQWYQTLEEVFIEVQVPPGTRAQDIQCGLQSRHVALSVGGREILKGKLFDSTIADEGTWTLEDRKMVRIVLTKTKRDAANCWTSLLESEYAADPWVQDQMQRKLTLERFQKENPGFDFSGAEISGNYTKGGPDFSNLEK
notes: NudCL2 (NudC-like protein 2), human; also called NudC-like protein 2; source: purified from bacteria
Regarding B1, the binding result in the test with His-Smc3 and in the test with His-Smc1α was “binds” throughout.
